Test results published in US6767538B2, “Recombinant antibacterial group IIA phospholipase A2 and methods of use thereof” (New York University, priority 1999, dated 2004).

Tests used:
[1] = tested on: Reynolds strain of Staphylococcus aureus; assay: Efficacy of administered mutant PLA2 against S. aureus infection in vivo (i.p. infection in mice); design: species or system CD/1 mice
Protocol: Bacteria: Reynolds strain of Staphylococcus aureus (encapsulated; grown overnight on Columbia agar to maximize encapsulation as in experiments shown in Example 6).
Administration of bacteria: 2×10^7/ml in 0.2 ml of sterile RPMI supplemented with 10 mM HEPES (pH 7.4) and 1% bovine serum albumin. Intraperitoneal (i.p.) inoculation.
Adminstration of PLA2: 15 μg/0.2 ml of above medium i.p. approx. 10-15 min after inoculation of bacteria. Control animals received medium alone. Enzyme administered was Mutant [G72K.T103K] Group IIA PLA 2.
a) @ 30, 60, 120, and 240 min after infection, blood samples taken from tail vein from each of 4 animals in control and PLA2-treated groups. There were a total of 16 animals in each group; each animal was bled only once in this time period. Levels of bacteremia were assessed by measurement of bacterial CFU in blood.
b) @ 1 day after infection, 8 animals from each group were sacrificed. Blood was collected again to measure bacteremia and the peritoneal cavity was washed and inspected to look macroscopically for abscesses (none seen) and measure intraperitoneal bacteria by assay of CFU.
c) @ 6 days after infection, the remaining 8 animals from each group were sacrificed and infection in blood and peritoneal cavity was measured as above (still no abscesses seen). This animal model produces local and disseminated infection in control animals that is eventually self-limiting. The level of metastatic infection is greatest at approx. 6 days. In addition, kidneys were excised, weighed (no significant difference between animals within and between treatment groups) and homogenized to facilitate assay of bacterial CFU within infected kidney (i.e. representing metastatic infection).

S. aureus RN450 = assay: Bactericidal activity toward S. aureus RN450 in RPMI-1640 medium; format: cell-based, Staphylococcus aureus; conditions: FIG. 4, 10^6/ml, 1-500 ng/ml, 60 minutes
Protocol: The bactericidal activity of wild-type human and recombinant mutant human and rabbit Group IIA PLA2s against Staphylococcus aureus 52A (10^6 per ml)was determined. S. aureus was incubated with 0.01-100 nM of each Group IIA PLA2 and incubated at 37° C. for 2 hours in RPMI-1640 medium containing 10 mM HEPES, pH 7.4 and 1% (w/v) albumin. After incubation, bacterial viability was determined by measuring the colony forming ability of the bacteria in trypticase soy agar. Bacterial colonies were enumerated after 18-24 hours at 37° C. The results are expressed as the percentage of the colony forming units (CFU) of the original bacterial inoculum (i.e. at T=0).
S. aureus RN450 (10^6/ml) was incubated with 1-500 ng/ml of each Group IIA PLA2 at 37° C. for 60 minutes in RPMI-1640 medium containing 10 mM HEPES, pH 7.4 and 1% (w/v) albumin. Bacterial viability was determined as in Example 3.

[2] = tested on: S. aureus RN450 and two clinical isolates, strains 5A (MRSA) and 18; assay: Bactericidal activity toward S. aureus RN450 and clinical isolates 5A and 18 in 70% pooled human sera; format: cell-based, Staphylococcus aureus; conditions: FIGS. 4 and 5; each of several strains; laboratory medium and 70% human sera, 90 minutes
Protocol: S. aureus RN450 and two clinical isolates, strains 5A (MRSA) and 18 (10^7/ml were incubated with 1-500 ng/ml of each Group IIA PLA2 at 37° C. for 90 minutes in 70% (v/v) pooled human sera diluted in Hanks' balanced salts solution and buffered with 10 mM HEPES, pH7.4.

S. aureus = assay: Antibacterial activity by colony-forming ability of susceptible bacteria; format: cell-based, Staphylococcus aureus
Protocol: According to the present invention, the mutant human Group IIA PLA2 of the present invention is characterized by bactericidal activity against gram positive bacteria, such as S. aureus (see Example 3). Antibacterial activity of mutant human Group IIA PLA2 may be quantified by measuring the colony-forming ability of susceptible bacteria that have been incubated with or without increasing amounts of mutant human Group IIA PLA2. Typically, a suspension of 10^6 bacteria/ml (e.g., S. aureus) is exposed to 1-500 ng/ml of mutant human Group IIA PLA2 for 60-90 minutes at 37° C., after which the cells are mixed with molten agar and plated. After overnight growth, bacterial colonies are compared between mutant Group IIA PLA2-treated and untreated cultures.

Staphylococcus aureus = conditions: 100 ng/ml in biological fluids; 10^6 S. aureus cells/ml, incl. multi-drug resistant clinical isolates; cited from earlier work

Molecule	abscesses seen ([1]; 6 days after infection, controls two of 16)	treatment of S. aureus infection in vivo ([1]; Example 7)	S. aureus bacteremia (CFU in blood) ([1]; FIG. 10, 15 μg i.p., 30, 60, 120, 240 min after infection)	metastatic kidney infection caused by S. aureus (CFU in kidney) ([1]; FIG. 11, 15 μg i.p., 6 days after infection)	antibacterial activity compared with wild-type human Group IIA PLA2 (S. aureus RN450)	bactericidal activity compared with WT rabbit Group IIA PLA2 (S. aureus RN450)	activity compared with wild-type human Group IIA PLA2 [2]	activity compared with wild-type rabbit enzyme [2]	antibacterial activity relative to human WT homologue (S. aureus) [×]	S. aureus cells killed (Staphylococcus aureus)
mutant human Group IIA PLA2: recombinant double mutant G72K.T103K human Group IIA phospholipase A2, protein SEQ. ID. NO. 2, expressed in E. coli (protein) NLVNFHRLIKLTTGKEAALSYGFYGCHCGVGGRGSPKDATDRCCVTHDCCYKRLEKRGCGTKFLSYKFSNSKSRITCAKQDSCRSQLCECDKAAATCFARNKKTYNKKYQYYSNKHCRGSTPRC	none were seen	effective	reduces	reduces	increased antibacterial activity	nearly equivalent	significantly more active	essentially as active	10	–
wild-type human Group IIA PLA2: wild-type human Group IIA 14 kDa phospholipase A2, comparator enzyme (protein, UniProt P14555 21-144, looked up) Phospholipase A2, membrane …: NLVNFHRMIKLTTGKEAALSYGFYGCHCGVGGRGSPKDATDRCCVTHDCCYKRLEKRGCGTKFLSYKFSNSGSRITCAKQDSCRSQLCECDKAAATCFARNKTTYNKKYQYYSNKHCRGSTPRC	–	–	–	–	–	–	–	–	–	greater than 99%
